Laboratory results reported in patent US20240043507A1 (RQ BIOTECHNOLOGY, published 2024).
Residue numbers refer to the chain shown, from its start.

B1: mAb 45 (antibody, V domains shown)
VH: QVQLVESGGGVVQPGRSLRLSCAASGFTFSTYAMHWVRQAPGKGLEWVAVLSYDGSNKYYADSVKGRFTISRDNSKNTLYLQMNSLRAEDTAVYYCAKGGSYAYYYYMDVWGKGTTVTVSS
VL: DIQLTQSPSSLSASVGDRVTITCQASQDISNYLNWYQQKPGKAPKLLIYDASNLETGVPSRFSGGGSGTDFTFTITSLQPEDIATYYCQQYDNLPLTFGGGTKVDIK
notes: also called antibody 45
B2: Fab of antibody 88 (Fab, V domains shown)
VH: QLQLQESGPGLVKPSQTLSLTCTVSGGSISSGSYNWTWIRQPAGKGLEWIGRIYNSGSTNYNPSLKSRVTISVDTSKNQLSLKVRSVTAADTAVYYCARHCSGGTCYPKYYYGMDVWGQGTTVTVSS
VL: QSALTQPPSVSEAPRQRVTISCSGSSSNIGNNAVNWYQQFPGKAPKLLIYYDDLLPSGVSDRFSGSKSGTSASLAISGVQSEDEADYYCAAWDDSLNVVVFGGGTKLTVL
notes: also called 88 Fab; Fab 88
B3: Fab of antibody 316 (Fab, V domains shown)
VH: not shown
VL: QAVLTQPPSASGSPGQSVTISCTGTSSDVGGYNYVSWYQQHPGKAPKLMIYEVSKRPSGVPDRFSGSKSGNTASLTVSGLQAEDEADYYCSSYAGSNHWVFGGGTKLTVL
notes: also called 316 Fab; Fab 316
B4: Fab of antibody 40 (Fab, V domains shown)
VH: QVQLVESGGGLVQPGGSLRLSCAVSGFTVSRNYMSWVRQAPGKGLEWVSLIYSGGSTFYADSVKGRFTISRDNSKNTLYLQMNSLRAEDTAVYYCARDLFHRSGYHDYWGQGTLVTVSS
VL: not shown
notes: also called 40 Fab; Fab 40
B5: Fab of antibody 158 (Fab, V domains shown)
VH: EVQLLESGGDLIQPGGSLRLSCAASGVTVSSNYMSWVRQAPGKGLEWVSIIYPGGSTFYADSVKGRFTISRDNSKNTLYLQMHSLRAEDTAVYYCARDLGSGDMDVWGKGTTVTVSS
VL: DIVMTQSPSFLSASVGDRVTITCRASQGISSYLAWYQQKPGKAPKLLIQAASTLQSGVPSRFSGSGSGTEFTLTISSLQPEDFATYYCQQLNSYRYTFGQGTKVEIK
notes: also called 158 Fab; Fab 158
B6: Fab of chimeric antibody 253H165L (Fab, V domains shown)
VH: not shown
VL: DIVMTQSPGTLSLSPGERATLSCRASQSVRSSYLAWYQQKPGQAPRLLIYGASRRGTGIPDRFSGSGSGTDFTLTISRLEPEDFAVYYCQQYGSSPWTFGQGTKVEIK
notes: also called 253H165L Fab
B7: chimeric antibody 253H165L, full-length IgG (antibody, V domains shown)
VH: not shown
VL: B6 VL
notes: also called 253H165L IgG
B8: antibody 318 (antibody, V domains shown)
VH: QVQLVQSGPEVKKPGTSVKVSCKASGFTLTSSAMQWVRQARGQRLEWIGWIVVGSGNTNYAQKFQERVTITRDMSTSTAYMELSSLRSEDTAVYYCAAGRGYNSDFDYWGQGTLVTVSS
VL: AIRMTQSPGTLSLSPGERATLSCRASQSVSSSYLAWYQQRPGQAPRLLIYGTSSRATGIPDRFSGSGSGTDFTLTISRLEPEDFAVYYCQQYGYSVYTFGQGTKVDIK
notes: also called mAb 318
B9: antibody 316 (antibody, V domains shown)
VH: not shown
VL: B3 VL
B10: antibody 398 (antibody, V domains shown)
VH: QVQLVESGGGLVQPGGSLRLSCAASGFTVSSNYMTWVRQAPGKGLEWVSVIYSGGSTYYADSVKGRFTISRDNSKNTLYLQMNSLRADDTAVYYCARDSTADYDFWSGYYVGAFHIWGQGTMVTVSS
VL: B3 VL with A2T, P8A, A10V, V18I, S54T, H98N
notes: also called mAb 398
B11: antibody 281 (antibody, V domains shown)
VH: QVQLVESGGGLVQPGGSLRLSCAASGFPFSIYWMSWVRQAPGKGLEWVANIKQDGSEKYYVDSVKGRFTISRDNAKNSLYLHMNSLRGEDTAVYYCASRYYDFRPEAWFDYWGQGTLVTVSS
VL: not shown
B12: Fab of antibody 159 (Fab, V domains shown)
VH: EVQLVESGGGVVQPGRSLRLSCAASGFTFSSYGMHWVRQAPGKGLEWVALISYDGGNRYYADSVKGRFTISRDNSKNTLYLQMNRLRAEDTAMYYCAKDRDDGWDWYYFMDVWGKGTTVTVSS
VL: DIQLTQSPGTLSLSPGERATLSCRASQSISGNYLAWYQHKPGQAPRLLIYGASTRATGIPDRFSGSGSGTDFTLTISRLEPEDFAVYYCQQYGSSYTFGQGTKVEIK
B13: Fab of antibody 318 (Fab, V domains shown)
VH: B8 VH
VL: B8 VL
B14: Fab of antibody 398 (Fab, V domains shown)
VH: B10 VH
VL: B3 VL with A2T, P8A, A10V, V18I, S54T, H98N
B15: Fab of antibody 281 (Fab, V domains shown)
VH: B11 VH
VL: not shown
B16: Fab of antibody 58 (Fab, V domains shown)
VH: QVQLVESGGGLVQPGRSLRLSCAASGFTFDDYAMHWVRQPPGKGLEWVSGVSWNSGTIGYADSVKGRFIISRDNAKNSLYLQMNSLKAEDTALYYCAREVGGTFGVLISREGGLDYWGQGTLVTVSS
VL: SYELTQPPSVSVAPGQTARITCGGNTIGSKSVHWYQQRPGQAPVLVVYDDSDRPSGIPERFSGSNSGNTATLTISRVEAGDEADYYCQVWDSSSDRVVFGGGTKLTVL
B17: Fab of antibody 175 (Fab, V domains shown)
VH: EVQLVESGGGLIQPGGSLRLSCAASGLTVSRNYMSWVRQAPGKGLEWVSLIYSGGSTYYADSVKGRFTISRDNSKNTLYLQMNSLRAEDTAVYYCARDLRGEVWGQGTMVTVSS
VL: not shown
B18: Fab of antibody 269 (Fab, V domains shown)
VH: QVQLVESGGGLIQPGGSLRLSCAASGLTVNRNYMSWIRQAPGKGLEWVSVIYSGGSTFYADSVKGRFTISRDNSKNTLSLQMNSLRAEDTAIYYCARDFYEGSFDIWGQGTMVTVSS
VL: AIQLTQSPSFLSASIGDRVTITCRASQGISSYLAWYQQKPGKAPKLLIYAASTLQSGVPSRFSGSGSGTEFTLTISSLQPEDFASYYCQQLNSYPAPVFGPGTKVDIK
notes: also called 269 Fab; COVOX-269
B19: Fab of antibody 222 (Fab, V domains shown)
VH: EVQLVESGGGLIQPGGSLRLSCAASGLTVSSNYMSWVRQAPGKGLEWVSVIYSGGSTFYADSVKGRFTISRDNSKNTLYLQMNSLGAEDTAVYYCARGEGSPGNWFDPWGQGTLVTVSS
VL: DVVMTQSPGTLSLSPGERATLSCRASQSVPSSYLAWYQQKPGQAPRLLIYGASTRATGIPDRFSGSGSGTDFTLTISRLEPEDFAVYYCQHYDTSPRFGGGTKVDIK

Target: SARS-CoV-2 spike on whole virus (SARS-CoV-2/human/AUS/VIC01/2020, Victoria) (SARS-CoV-2, UniProt P0DTC2 14-1273)
Assay: cell-based or functional assay

Binder	Neutralisation IC50 (FRNT) [µg/mL]
B1	2

Target: T1, SARS-CoV-2 spike protein on authentic virus, strain SARS-CoV-2/human/AUS/VIC01/2020 (Victoria) (SARS-CoV-2, UniProt P0DTC2 14-1273)
Assay: cell-based or functional assay

Binder	Neutralisation IC50 [nM]
B2	6.95
B3	27.6
B4	45.7
B5	4.12
B6	5.22
B7	0.03

Target: spike protein of SARS-CoV-2 strain Victoria (SARS-CoV-2/human/AUS/VIC01/2020) (SARS-CoV-2, UniProt P0DTC2 14-1273)
Assay: cell-based or functional assay

Binder	IC50 (FRNT neutralisation) [µg/mL]
B8	0.029
B9	0.018
B10	0.091
B11	0.005

Target: spike protein of SARS-CoV-2 strain B.1.1.7 (SARS-CoV-2, UniProt P0DTC2 14-1273)
Assay: cell-based or functional assay

Binder	IC50 (FRNT neutralisation) [µg/mL]
B8	0.185
B9	0.024
B10	0.18
B11	0.012

Target: spike protein of SARS-CoV-2 strain B.1.351 (SARS-CoV-2, UniProt P0DTC2 14-1273)
Assay: cell-based or functional assay

Binder	IC50 (FRNT neutralisation) [µg/mL]
B8	0.019
B9	> 10
B10	> 10
B11	> 10

Target: spike protein of SARS-CoV-2 strain P.1 (SARS-CoV-2, UniProt P0DTC2 14-1273)
Assay: cell-based or functional assay

Binder	IC50 (FRNT neutralisation) [µg/mL]
B8	0.083
B9	> 10
B10	> 10
B11	> 10

Target: T1, SARS-CoV-2 spike protein on authentic …
Assay: whole-virus capture ELISA, half-maximal binding

Binder	Kd [nM]
B2	1.21
B12	0.29
B3	8.76
B4	1.23
B5	3.73
B6	5.02
B7	0.09

Target: T2, SARS-CoV-2 receptor binding domain with N501Y (SARS-CoV-2, UniProt P0DTC2 330-532)
T2 construct: range 330-532; also called RBD-N501Y; RBD N501Y
Assay: BLI, RBD immobilised on AR2G biosensor, 1:1 fit

Binder	Kd [nM]
B2	0.65
B13	1.99
B14	1.18
B3	2.81
B15	4.05
B4	0.97
B5	1.57
B16	0.55
B17	2.54
B18	45.4
B19	0.39

Target: T1, SARS-CoV-2 spike protein on authentic …
Assay: calculated from whole-virus ELISA binding and FRNT50

Binder	% Occupancy [%]
B2	85.2
B3	74
B4	97.4
B5	52.7
B6	51.3
B7	24.5
